In US20220143089A1:

How the values were obtained:
[1] = target: TRAIL death receptor 5 (DR5) (UniProt O14763); test: flow cytometry, mock electroporated primary expanded NK cells (endogenous DR5)
[2] = target: TRAIL death receptor 5 (DR5) (UniProt O14763); test: flow cytometry, Jurkat T cells stained with anti-DR5 (FMO control 1.29%)
[3] = target: DR5-41BB fusion protein (SEQ ID NO: 4); test: flow cytometry, Jurkat T cells transfected with DR5-41BB; DR5-41BB specific signal after mock is set to MFI=0
[4] = target: DR5-41BB fusion protein (SEQ ID NO: 4); test: flow cytometry, primary expanded NK cells electroporated with DR5-41BB mRNA; 608 minus 208
[5] = target: TRAIL death receptor 5 (DR5) (UniProt O14763); test: flow cytometry, mock electroporated Jurkat T cells (endogenous DR5)
[6] = target: DR5-41BB fusion protein (SEQ ID NO: 4); test: flow cytometry, Jurkat T cells transfected with DR5-41BB; signal is endogenous DR5 plus DR5-41BB
[7] = target: DR5-41BB fusion protein (SEQ ID NO: 4); test: flow cytometry, primary expanded NK cells electroporated with DR5-41BB mRNA; signal is endogenous DR5 plus DR5-41BB
[8] = target: DR5-41BB fusion protein (SEQ ID NO: 4); test: cell-based or functional assay

Sequence of DR5-41BB fusion protein (SEQ ID NO: 4) (chain, as listed by the source limits assumed): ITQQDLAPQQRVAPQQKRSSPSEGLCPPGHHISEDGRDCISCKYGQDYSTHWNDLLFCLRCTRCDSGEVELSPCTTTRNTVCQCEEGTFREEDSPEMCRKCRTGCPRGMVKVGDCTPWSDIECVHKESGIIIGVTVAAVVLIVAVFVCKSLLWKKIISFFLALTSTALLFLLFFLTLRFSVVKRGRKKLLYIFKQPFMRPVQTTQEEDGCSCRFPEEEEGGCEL

Row | Substance | mean MFI [1] [MFI] | percent of cells stained [2] [%] | mean MFI (mock background subtracted) [3] [MFI] | mean MFI (mock background subtracted) [4] [MFI] | mean MFI [5] [MFI] | mean MFI [6] [MFI] | mean MFI [7] [MFI] | cell death in T cells (Propidium Iodide, flow cytometry, 16 hours, 100 ng/ml TRAIL) [8] [%]
1 | anti-DR5 antibody (Clone: DJR2-4, Source: Biolegend, Cat: 307406) | 208 | 86.8 | 1380 | 400 | 698 | 2070 | 608 | 
2 | soluble TRAIL ligand (from UniProt P50591 114-281) |  |  |  |  |  |  |  | 15
